# According to patent US7267960 (Amgen, dated 2007):
# B1: soluble recombinant human CRTAM-Fc (Fc fusion)
# chain: SLTNHTETITVEEGQTLTLKCVTSLRKNSSLQWLTPSGFTIFLNEYPALKNSKYQLLHHSANQLSITVPNVTLQDEGVYKCLHYSDSVSTKEVKVIVLATPFKPILEASVIRKQNGEEHVVLMCSTMRSKPPPQITWLLGNSMEVSGGTLHEFETDGKKCNTTSTLIILSYGKNSTVDCIIRHRGLQGRKLVAPFRFEDLVTDEETASDALERNSLSTQDPQQPTSTVSVTEDSSTSEIDKEEKEQTTQDPDLTTEANPQYLGLARKKSG
# notes: also called huCRTAM-Fc; not shown: Fc part not described
# Legend:
# [1] = target: T1, human LDCAM, full length membrane-bound, expressed on transfected or transduced cells (human, UniProt Q9BY67 39-442); assay: flow cytometry on EL4 cells transduced with human LDCAM (legend of FIG. 15)
# T1 construct: also called B7L-1 counter receptor; Igsf4
# T1 sequence: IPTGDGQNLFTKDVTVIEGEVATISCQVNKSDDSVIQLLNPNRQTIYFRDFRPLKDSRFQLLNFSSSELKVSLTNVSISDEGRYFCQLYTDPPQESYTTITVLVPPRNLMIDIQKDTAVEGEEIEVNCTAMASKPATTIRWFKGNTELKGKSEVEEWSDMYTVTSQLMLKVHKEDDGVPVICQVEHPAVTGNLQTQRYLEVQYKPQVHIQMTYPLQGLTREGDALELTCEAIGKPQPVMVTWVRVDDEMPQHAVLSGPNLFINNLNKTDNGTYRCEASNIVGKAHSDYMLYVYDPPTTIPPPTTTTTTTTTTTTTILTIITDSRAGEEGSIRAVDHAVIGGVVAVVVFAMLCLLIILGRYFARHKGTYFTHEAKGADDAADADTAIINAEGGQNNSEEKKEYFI
# [2] = target: T2, human Necl1 expressed on transduced EL4 cells (human, UniProt Q8N126 25-398); assay: flow cytometry on transduced EL4 cells
# T2 construct: whole, on cells
# T2 sequence (looked up): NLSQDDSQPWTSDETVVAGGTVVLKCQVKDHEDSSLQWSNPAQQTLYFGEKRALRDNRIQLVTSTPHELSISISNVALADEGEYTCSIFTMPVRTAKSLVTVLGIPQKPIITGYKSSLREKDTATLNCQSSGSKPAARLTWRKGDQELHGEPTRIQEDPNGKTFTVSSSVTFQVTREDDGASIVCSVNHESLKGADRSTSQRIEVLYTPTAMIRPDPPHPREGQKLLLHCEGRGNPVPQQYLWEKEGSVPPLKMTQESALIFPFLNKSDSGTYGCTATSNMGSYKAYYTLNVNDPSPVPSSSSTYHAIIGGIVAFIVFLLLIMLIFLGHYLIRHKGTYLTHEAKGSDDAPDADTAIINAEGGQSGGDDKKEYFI
binder,measurement,setting,value
B1,binding result,[1],binds
same,binding result,[2],no binding
